One test deals with C2C12 myoblasts. As to the kind of experiment: Dexamethasone-induced atrophy gene expression in C2C12 myoblasts. Particulars: 64 nM peptide together with dexamethasone (25 μM); RT-qPCR. It is filed as cell-based. As to the method:
Myoblast C2C12 (myoblast) was dispensed into a 6 well plate, and then cultured in a DMEM medium containing 10% FBS and 1% antibiotics at 37° C. in a 10% CO2 incubator. Thereafter, in order to induce differentiation, the medium was replaced with a differentiation medium containing 2% horse serum, the C2C12 cells were treated with PEP004 and PEP005 at a concentration of 64 nM during the time for induction of differentiation, and formation of myotubes was observed.
After differentiation of myoblasts, the cells were treated with dexamethasone (25 μM), which causes muscle atrophy, and PEP004 and PEP005 simultaneously, and then RNA was extracted from the cells using Trizol. Reverse transcriptase was added to the obtained RNA and reacted to synthesize cDNA, and SYBR Green and primers were added to perform quantitative real-time PCR (RT-qPCR). Expression levels of Atrogin-1 and MuRF1, which are factors involved in muscle atrophy, were measured to determine whether atrophy of differentiated myoblasts was inhibited.
(Real-time PCR tracks product formation cycle by cycle.)

Test [1] has as its system APP/PS1 Alzheimer's disease mice. The experiment in a line: Novel object recognition test in APP/PS1 Alzheimer's disease mice. It is filed as in vivo. As to conditions: oral for 8 weeks; vs vehicle. As to the method: To 5-month-old APP/PS1 Alzheimer's disease male mice with amyloid deposition and cognitive and memory disorder in the brain, Amuc_1409 was orally administered to the mice by 5 μg daily 5 days a week for 8 weeks. PEP001 was dissolved in PBS buffer at a concentration of 2.4 μM, and then orally administered to the mice by 150 μL per animal 5 days a week for 8 weeks. To the control group (vehicle), PBS was orally administered in the same volume. In addition, normal mice (Non-Tg) not administered with the novel protein fragments were used as a control group.
In order to test the effect of improving cognitive function in APP/PS1 Alzheimer's disease mice administered with Amuc_1409 and PEP001, a novel object recognition test was performed. When the object seen 24 hours ago and a novel object were provided, the exploration time and the number of explorations for the novel object were measured to test cognition and memory.

In another test the test system is BTBR mice. As to the kind of experiment: Social (sniffing) behavior in BTBR developmental disability model. It is filed as in vivo. Particulars: oral, after 4 weeks of administration; vs vehicle. As to the method:
In order to verify the efficacy of the peptides of the present invention on developmental disability, BTBR mice (BTBR T^+ltpr3^tf/J (BTBR)), a developmental disability model, were used as an experimental animal.
To 3-week-old male BTBR mice, Amuc_1409 was orally administered by 5 μg daily 5 days a week, and PBS (phosphate-buffered saline) was administered to the control group. PEP001, PEP002, PEP003, PEP004, and PEP005 were each dissolved in PBS buffer at a concentration of 2.4 μM and orally administered to the mice by 150 μL per animal at the same time once a day 5 days a week, and novel tetrapeptides PEP006, PEP007, PEP008, PEP009, and PEP010 and novel tripeptides PEP011 and PEP013 were each dissolved in PBS buffer at 0.2 μg/150 μL and orally administered to the mice by 150 μL per animal at the same time once a day 5 days a week. After 4 weeks of administration, behavioral evaluation was performed by observing the social behavior of the mice. The mice were allowed to freely consume sterilized feed and water in a breeding facility in a specific pathogen free environment where the temperature was maintained at 22° C. to 24° C., and were bred while maintaining a 12-hour day/night cycle.

For test [2], the system named is Human skin keratin cell line (HaCaT). The experiment in a line: UVB photoaging gene expression in human skin keratinocytes. It counts as cell-based. As to conditions: 30 nM; UVB 10 mJ/cm^2; vs control group irradiated with UVB. As to the method: An experiment was conducted to examine the skin regeneration ability of the peptides of the present invention. Human skin keratin cell line (HaCaT) was cultured in DMEM medium containing 10% fetal bovine serum (FBS) and 1% penicillin-streptomycin at 37° C. and 5% CO2. When the cell density reached 80%, the cells were dispensed into a 6-well plate at 4×10^5 cells per well and cultured for 24 hours. After 24 hours, the cells were treated with Amuc 1409 at a concentration of 30 nM for 1 hour, washed twice with PBS (phosphate buffered saline) after 1 hour, and irradiated with ultraviolet light at 10 mJ/cm^2 using an ultraviolet (UVB) irradiation device (CL-1000 UV crosslinker; UVP, USA). After UV irradiation, the medium was replaced with serum-free medium, and the cells were immediately treated with Amuc_1409 for 8 hours.
In relation to skin wrinkles due to skin aging, in order to examine the expression of MMP-1 and MMP-3 genes, which are collagenase, and Col1a1 and Col3a1 genes, which are collagen synthesis enzymes, RNA was isolated from the cells in each well using Trizol (Invitrogen, USA) and quantified by nanodrop, and then cDNA was synthesized using 1 μg of each RNA. A mixture obtained by adding MMP-1, MMP-3, Col1a1 and Col3a1 primers and fluorescent dye AccuPower® 2× GreenStar™ qPCR Master Mix (BIONEER, Korea) to the synthesized cDNA was subjected to real-time polymerase chain reaction in a real-time PCR machine.

For GAY [PEP005], in the test with C2C12 myoblasts, the “expression of Atrogin-1” value is recorded as “significantly decreased” and the “expression of MuRF1” value is given as “significantly decreased”.

Take AVS (AVSSIKGAY) [PEP004]: in the test with C2C12 myoblasts, the “expression of Atrogin-1” value is “significantly decreased” and the “expression of MuRF1” value was “significantly decreased”.

Turning to AVSSIKGAY (PEP001), in test [1], the “cognition and memory, novel object recognition test” value is reported as “significantly improved”.

B1: Amuc_1409: SEQ ID NO: 15, functional fragment obtained by eliminating the leader sequence from SEQ ID NO: 14; protein derived from Akkermansia muciniphila (protein)
chain: IPESSVPAAAVSSIKGAYPNAGPIEWDSEMHGMERIYEAEFRINGFQFDVKIAPDGKIVRIKEEIAASSLPEAVRASVLKRYPGCRIKEAEKITEGELVRYKVEVADSRDDYDVLIAPDGNILHVDR
modifications: Amuc_1409_fragment
notes: protein derived from Akkermansia muciniphila
On to B1, for which the “social behavior (sniffing time and frequency)” value in the test on BTBR mice is “significantly increased or tended to increase”. Further, in test [2], the “expression of Col1a1 gene” value is on record as “significantly increased”, the “expression of Col3a1 gene” value was “significantly increased”, the “expression of MMP-1 gene” value was “significantly decreased” and the “expression of MMP-3 gene” value is recorded as “significantly decreased”. Moreover, in test [1], the “cognition and memory, novel object recognition test” value was “significantly improved”.

The values are drawn from US20240209022A1, “NOVEL PEPTIDE HAVING ANTI-INFLAMMATORY AND TISSUE REGENERATIVE ACTIONS” (KOREA RESEARCH INSTITUTE OF BIOSCIENCE AND BIOTECHNOLOGY, priority 2020, published 2024).
